Assay results taken from US20240218057A1 (ROCKEFELLER UNIVERSITY, published 2024).

Molecular target: T1, SARS-COV-2 RBD (SARS-COV-2, UniProt P0DTC2 319-539)
T1 construct: also called WT RBD
Test: ELISA, RBD coated on plate

B1: C947 (antibody, V domains shown)
VH: QVQLQESGPGLVRPSGTLSLTCAVTGGSISSSDCWSWVRQPPGKGLEWIGEICHGRTSNYNPSLKSPVSISVDKSKNQFSLILSSVTAADKAVYYCARSSRFLPPLPDAFDLWGQGTMVTVSS
VL: QSVLTQPPSVSGAPGQRVTISCTGSSSNIGAGYDVHWYKQLPGTAPKLLIYGNTNRPSGVPGRFSGSKSGTSASLAITGLQAEDEADYFCQSYDTRLSVVFGGGTKLT
Binder B1 has an EC50 of 2.08 ng/mL.

B2: C945 (antibody, V domains shown)
VH: QVQLVQSGAEVKKPGASVRISCKASGYTFTNYYMHWVRQAPGQGLEWMGIINPSGGSTTYAPKFQARVTMTRDTSTSTVYMELSSLRSDDTAVYYCARDYVLVPARSGMDVWGQGTTVTVS
VL: EIVLTQSPATLSLSPGERATLSCRASQSVSSYLAWYQQKPGQAPRLLIYDASNRATGIPARFSGSGSGTDFTLTISSLEPEDFAIYYCQQRSNWPYTFGQGTKLEIK
B2 showed an EC50 of 3.13 ng/mL.

B3: C1041 (antibody, V domains shown)
VH: QVQLVQSGAEVKKPGASVKVSCKASGYTFSDHYIYWVRQAPGQGLEWMGIINPSAGSTSYAQKFQGRVTMTRDTSTSTVYMELSSLRSEDTAVYYCARDIVFVPATMAMDVWGLGTTVTVSS
VL: EIVLTQSPATLSLSPGERATLSCRASQSVSRYLAWYQQKPGQAPRLLIYDASNRATGIPARFSGSGSGTDFTLTISSLEPEDFAVYYCQQRSNWLFTFGPGTKVDIK
With B3 the EC50 was 3.65 ng/mL.

B4: C946 (antibody, V domains shown)
VH: QVQLVQSGAEVKKPGASVKVSCKASGYTFTNYYIHWVRQAPGQGLEWMGIINPDGDSTSYVQKFQGRVTMTRDTSTSTVYMELSSLRSEDTAVYYCARDLVFVPATSAMDVWGKGTTVTVSS
VL: EIVLTQSPATLSLSPGERATLSCRASQSVSSYLAWYQQKPGQAPRLLIYDASNRATGIPARFSGSGSGTDFTLTISSLEPEDFAVYYCQQRSNWLFTFGPGTKVDIK
With B4 the EC50 was 3.82 ng/mL.

B5: C1042 (antibody, V domains shown)
VH: QVQLVQSGAEVKKPGASVKVSCKASGYTFSDHYIYWVRQAPGQGLEWMGIINPSGGSTSYAQKFQGRVTMTRDTSTSTVYMELSSLKSEDTAVYYCSRDIVFVPATMAMDVWGQGTTVTVSS
VL: EIVLTQSPATLSLSPGERATLSCRASQSVSRYLAWYQQKPGQAPRLLIYDASNRATGIPARFSGSGSGTDFTLTISSLEPEDFAVYYCQQRSNWLFTFGPGTKVDIK
B5 showed an EC50 of 4.55 ng/mL.

B6: C1027 (antibody, V domains shown)
VH: EVQLVESGGGLVQPGGSLRLSCAASGFIVTTNYMSWVRQAPGKGLEWVSLIYPGGSTFYADSVEGRFTISRDNSKNTLYLQVNSLRVEDTAVYYCARDTFGRGDDHWGQGTLVTVSS
VL: DIQMTQSPSSLSASVGDRVTITCQASQDINIYLNWYQQRPGKAPKLLIYDASNLQTGVPSRFSGSGSGTDFTITISSLQPEDIATYYCQQYDNLPRSFGQGTKLEI
For B6, the EC50 was 2.42 ng/mL.

B7: C1026 (antibody, V domains shown)
VH: QVQLVESGGGVVQPGKSLRLSCAASGFIFSSYSMHWVRQAPGKGLEWVAVVSNDGSGKFYADSVRGRFTIFRDNSKNTLYLQVSSLRAEDTAVYYCARDALTSISVLFDCWGQGTLVTVSS
VL: DIQMTQSPSSLSASLGDRVTITCRASQSISNYLNWYQQKPGKAPKLLIYGASSLQSGVPSRFSGSGSGTDFTLTISNLQPEDFATYFCQQSYSTPSVTFGGGTKVEIK
Work on B7 yielded an EC50 of 2.5 ng/mL.

B8: C951 (antibody, V domains shown)
VH: QVQLQESGPRLVKPSGTLSLTCAVSGGSISTTNWWSWVRQPPGKGLEWIGEIHHSGNTNYNPSLKSRVTISVDRSKNQFSLKLSSVTAADTAVYFCARDGGRPGDPFDIWGQGTMVTVSS
VL: QSALTQPASVSGSPGQSITISCTGTSSDVGGYNYVSWYQQHPGKAPNLMIYDVSDRPSGVSNRFSGSKSGNTASLTISGLQAEDEADYYCNSFTSNSTRVFGTGTKVTV
For B8, the EC50 was 0.81 ng/mL.

B9: C1031 (antibody, V domains shown)
VH: QLQLQESGPGLVKPSETLSLTCTVSGGSINTSTYYWGWIRQPPGKGLEWIGNIYYSGITYYNPSLKSRVTISVDTSKNQFSLKLRSVTAADTAVYYCARQHRFGSGSSELLWGQGTLVTVSS
VL: QSALTQPPSASGSPGQSVTISCTGTSSDVGSYNYVSWYQQHPGKAPKLMIYEVTKRPSGVPDRFSGSKSGNTASLTVSGLQADDEADYYCSSYAGSSNLVFGGGTKLTV
B9 showed an EC50 of 7.23 ng/mL.

B10: C943 (antibody, V domains shown)
VH: QVQLVESGGGVVQPGRSLRLSCAASGFPFSSFGMHWVRQAPGRGLEWVALILYDGDNKYYADSVKGRFTISRDNSKNTLYLQMNSLRAEDTAVYYCAKDIGGGSSPPFFDYWGQGTLVTVSS
VL: SYELTQAPSVSLAPGKTARITCGENNIGSKSVHWYQQKPGQAPVLVIYYDSDRPSGIPERFSGSNSGNTATLTISRVEAGDEADYYCQVWDSSSDHVMFGGGTKLTVL
B10 showed an EC50 of 2.59 ng/mL.

B11: C1032 (antibody, V domains shown)
VH: EVQLVESGGSLVKPGGSLRLSCVASGLTFNHAWMSWVRQAPGKGLEWVGRIKSKIDGGTTDYAAPVKGRFTISRDDSKSTQYLQMNSLKTEDTAVYYCTTDCFWRLGGTTCYEHDAFDVWGQGTMVTVS
VL: DIQMTQSPSSLSASVGDRVTITCRASQAIATFLNWYQQKPGKAPKLLIYAASSLQSGVPSRFSGSGSGTDFTLTISSLQPEDFATYYCQQSYNSLHFGGGTKVEIK
In the case of B11, the EC50 is reported as 2.89 ng/mL.

B12: C948 (antibody, V domains shown)
VH: EVQLVESGGGLVQPGGSLRLSCAASGFTFSRYDMHWVRQATGKGLEWVSIIGTAGDTYYPGSVKGRFTISRDNAKNSLFLQMNSLRAGDTAVYYCARANYDSSGYHNWFDPWGQGTLVTVSS
VL: DIQMTQSPSSLSASIGDRVTITCRASQNINSYLNWYQQKPGKAPKLLIYAASSLQSGVPSRFSGSGSGTDFTLTINSLQPEDFATYYCQQSYSMPSWTFGQGTKVEI
B12 was tested, and the EC50 was 3.26 ng/mL.

B13: C944 (antibody, V domains shown)
VH: QVQLVESGGGVVQPGRSLRLSCAASGFTFSSYGMHWVRQAPGKGLEWVAVISYDGSYKYYADSVKGRFTISRDNSKNTLYLQMNSLRAEDTAVYYCAKGSGSQLYYYYGMDVWGQGTTVTVSS
VL: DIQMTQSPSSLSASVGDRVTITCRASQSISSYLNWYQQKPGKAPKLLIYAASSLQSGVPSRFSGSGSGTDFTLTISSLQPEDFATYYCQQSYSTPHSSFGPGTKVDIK
B13 was tested, and the EC50 was 1.71 ng/mL.

B14: C940 (antibody, V domains shown)
VH: QVQLQESGSGLVKPSQTLSLTCAVSGGSASSGGYSWSWIRQPPGKGLEWIGYIYHSGSTYYNPSLKSRVTISLDRTKKQFSLKLSSVTAADTAVYYCARFCLSGSHYLFAFDIWGPGTMVTVSS
VL: QSALTQPASVSGSPGQSITISCTATSSDVGGYNFVSWYQQYPGKVPKLLIYDVGNRPSGVSNRFSGSKSGNTASLTISGLQAEDEADYYCSSYTNSSTFFGGGTKLTVL
For B14, the EC50 was 1.8 ng/mL.

B15: C1025 (antibody, V domains shown)
VH: EVQLVESGGGLVQPGRSLRLSCAASGFTFDDYAMHWVRQVPGKGLEWVSGVSWNGDSVGYADSMEGRFTISRDNAKNSLYLQMNSLRTEDTALYYCAKGVDYSSSSNFDFWGQGTLVTVSS
VL: DIQMTQSPSSVSASVGDRVTITCRASQGISSWLAWYQQKPGKAPKLLISLASSLQSGVPSRFSGSGSETDFTLIISSLQPEDFATYYCQQSSSFPLTFGGGTKVEIK
With B15 the EC50 was 2.51 ng/mL.

B16: C1028 (antibody, V domains shown)
VH: QVQLVESGGGVVQPGRSLRLSCADSGFTFSSSGMHWVRQAPGKGLEWVGVISYDGGNKYYADSVKGRFTISRDNSKNTLYLQMNSLRAEDTAVYYCAKDTPGGDDIMTGWGLYGMDVWGQGTTVTVSS
VL: DIQMTQSPSSLSASVEDRVTITCRASQSISSYLNWYQQKPGKAPKLLIYAAISLQSGVPSRFSGSGSGTEFTLTISSLQPEDFATYYCQQSYTTPWAFGQGTKVEIK
For B16, the EC50 was 3.58 ng/mL.

B17: C1030 (antibody, V domains shown)
VH: EVQLVESGGGLVQPGGSLRLSCEASGVIVSSNYMNWVRQAPGKGPEWVSVLYAGGSTFYADSVKGRFTISRDDSKNTLFLQMNNLRAEDTAVYFCARDLIAFGMDVWGQGTTVTVSS
VL: DIQLTQSPSFLSASVGDRVTITCRASQGINSDLAWYQQKPGKAPKLLIYGASTLQSGVPSRFSGSGSGTEFSLTVSSLQPEDFATYYCQQLNSYRRFGGGTKVEIK
Work on B17 yielded an EC50 of 2.78 ng/mL.

B18: C1033 (antibody, V domains shown)
VH: QVQLVQSGAEVKKPGSSVKVSCKASGGTFSRNVISWVRQAPGQGLEWMGGIIPMFGTANYAQKFQGRVTISADESTSTAYMELSSLRSEDTAVYYCAREDFILESAPIRENSYYYYGMDVWGQGTTVTVSS
VL: EIVLTQSPGTLSLSPGERATLSCRASQSVSSNYLAWYQQKPGQAPRLLIYDASSRATGIPDRFSGSGSGTDFTLTIRRLEPEDFAVYYCQQYGGSPRTFGQGTKVEIK
B18 showed an EC50 of 3.63 ng/mL.

B19: C1029 (antibody, V domains shown)
VH: QVQLVESGGGVVQPGRSLRLSCAASGFTFSSFGMHWVRQAPGKGLEWVAVISYDGSYKDYGDSVKGRFTISRDNSKNTLYLQMNSLRAEDTAVYYCARDSNVDTVMVTWFDYWGRGTLVTVSS
VL: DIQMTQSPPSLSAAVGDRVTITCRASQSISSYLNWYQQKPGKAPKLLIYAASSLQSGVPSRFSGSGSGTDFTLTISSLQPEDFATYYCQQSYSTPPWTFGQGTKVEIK
With B19 the EC50 was 2.86 ng/mL.

B20: C949 (antibody, V domains shown)
VH: QVQLQESGPGLVKPLQTLSLTCTVSGGSISNGDYYWSWIRQSPGKGLEWIGNIFYSGATYFNPSLKSRVTLSVDTSKNQFSLKLSSVTAADTAVYYCARVVRVLPAASVDCWGQGTLVTVSS
VL: QSALTQPRSVSGSPGQSVPISCTGTSSDVGGYDYVSWYQQHPGKAPKLIIYDVSERPSGVPDRFSGSKSGNTASLTISGLQAEDEATYYCCSYAGTSVMFGGGTKLTVL
In the case of B20, the EC50 is reported as 2.33 ng/mL.

B21: C941 (antibody, V domains shown)
VH: QVQLVQSGAEVKKPGSSVKVSCKASGGTSRSYPISWVRQAPGQGLEWMGRIIPIVGTANYAQRFQGRVTITADESTGTAYMELSSLRSEDTAVYYCARNRGYSDYGSVYYFDYWGQGTLVTVSS
VL: QSVLTQPPSVSGAPGQRVTISCTGSSSNIGAGYDVHWYQQLPGAAPKLLIYRNINRPSGVPDRFSGSKSGTSASLAITGLQADDEADYYCQSYDSSLSGSVFGGGTKLTV
In the case of B21, the EC50 is reported as 0.88 ng/mL.

B22: C939 (antibody, V domains shown)
VH: QVQLVESGGGVVQPGRSLRLSCAASGFTFSSYAMHWVRQAPGKGLESVALISHDGSNKYHADSVKGRLTISRDTSKNTLYLQMDSLRPEDTAVYYCASGLLWFETAGGSGAPDYGMAVWGQGTTVTVSS
VL: DIQMTQSPSSLSASVGDRVTITCRASQSISTYLNWYQQKPGRAPKFLIYAASSLQSGVPSRFSGSGSGTDFTLIISGLQPEDFATYFCQQSYNTPLTFGGGTKVEIK
In the case of B22, the EC50 is reported as 3.62 ng/mL.

B23: C942 (antibody, V domains shown)
VH: QVQLVESGGGVVQPGRSLRLSCAASGFTFSSYVMHWVRQAPGKGLEWVAIISSDGNTKYYADSVKGRFTISRDNSKNTLYLQMNSVRTDDTAVYYCARDGTTMTPTDLLTDWGQGTLVTVSS
VL: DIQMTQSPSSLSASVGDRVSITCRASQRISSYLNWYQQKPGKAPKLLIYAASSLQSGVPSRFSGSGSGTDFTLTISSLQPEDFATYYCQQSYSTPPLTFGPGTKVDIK
Binder B23 has an EC50 of 1.35 ng/mL.
